# T1: HGREM1-His (ACRO) (human, UniProt O60565 25-184)
# T1 construct: Lys25-Asp184 of NP_037504 with C-terminal polyhistidine tag (ACRO GR1-H52H3); they are put here; also called hGREM1 (ACRO); human gremlin (ACRO)
# T1 sequence: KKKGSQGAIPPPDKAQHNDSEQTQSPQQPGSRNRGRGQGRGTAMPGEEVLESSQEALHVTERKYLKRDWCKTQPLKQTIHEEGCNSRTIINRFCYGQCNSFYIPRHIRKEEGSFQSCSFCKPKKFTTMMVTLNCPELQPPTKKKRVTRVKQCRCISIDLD
# T2: human gremlin-2 (R&D) (human, UniProt Q9H772 22-168, limits assumed)
# T2 construct: also called GREM2
# T2 sequence (looked up): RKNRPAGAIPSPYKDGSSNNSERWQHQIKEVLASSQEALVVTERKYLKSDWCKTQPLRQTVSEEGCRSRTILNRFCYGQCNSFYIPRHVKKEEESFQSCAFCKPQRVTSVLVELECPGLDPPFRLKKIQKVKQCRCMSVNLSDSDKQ
# How the values were obtained:
# [1] = biological target: T1, HGREM1-His (ACRO); experiment: blocking ELISA, Human Gremlin-1 binding to BMP4; column OD450
# Method: In addition, the ability of serial dilutions of antibodies provided herein to block Gremlin binding to human BMP2/4/7 was also examined via ELISA. Plates were coated with recombinant human BMP2/4/7 (0.5 μg/ml) overnight and then serial dilutions of antibodies were incubated with 1 μg/ml of human Gremlin-his modified for 1 h at RT before this complex was added to coated plates and allowed to incubate for an additional hour at RT. The plates were then washed and added with anti-his HRP (GenScript). Plates were then developed with a TMB solution and stopped by adding stop solution. The plates were read on a plate reader at 450 nm. […] The chimeric anti-gremlin 1 antibodies (69H5-chi) and chimeric anti-gremlin 1 antibodies (22F1-chi) also can inhibit the binding of gremlin to BMP2 and BMP4 (see, FIG. 3E and FIG. 3F). The chimeric anti-gremlin 1 antibodies (56C11-chi) can inhibit the binding of gremlin to BMP2 (see, FIG. 3E).
# [2] = biological target: T1, HGREM1-His (ACRO); experiment: ELISA on coated Gremlin-his (column Gremlin)
# Method: Binding affinities to hGREM1 and XM5 were also compared. Briefly, XM5-Fc or Gremlin-his […] was coated. 100 μl of block solution consisting of PBS+1% BSA+1% normal goat serum+0.5% Tween 20 (Sigma) was added to each well and incubated at room temperature for 2 hours. 4-fold serial antibody dilution from 2 μg/ml were added. Afterward the plates were washed three times with 200 ul of PBS+0.1% Tween20 followed by adding 100 μl/well 1:10000 Goat anti mouse IgG-HRP (abeam), and incubate for 1 hour at room temperature. They were then washed 3× with PBS+0.1% Tween20. Finally, 100 μl/well of TMB (InnoReagents) was added to each well and after 2 minutes add 50 ul of stop solution to each well. The plates were read on a Multiscan FC microplate reader (Thermo Scientific) at […]. The EC50 values were show in table below.
# [3] = biological target: T2, human gremlin-2 (R&D); experiment: ELISA on coated human gremlin-2 (R&D, 0.5ug/ml), anti-mouse IgG-HRP
# Method: (§1) In addition, the specificity of the binding of 14E3 and a benchmark antibody was assessed with ELISA. Briefly, clear polystyrene plates (BEAVER) were coated with 100 μl/well of a […] hGREM1 (ACRO), or human gremlin-2 (R&D), human COCO (R&D) and human DAN protein (R&D) in high pH coating buffer overnight at 4° C. Then the plates were washed once on an automatic plate washer using PBS+0.1% Tween 20 (Sigma). 100 μl of block solution consisting of PBS+1% BSA+1% normal goat serum+0.5% Tween 20 (Sigma) was added to each well and incubated at room temperature for 2 hours. Then 100 ul of antibodies in antibody dilution buffer containing PBS+1% BSA+1% normal goat serum+0.01% Tween 20 starting from 2 μg/ml and then 5 fold serial dilution were added to each well of the plate and incubated for 1 hours at room temperature. Afterward the plates were washed three times with 200 ul of PBS+0.1% Tween20 followed by adding 100 μl/well 1:10000 Goat anti mouse IgG-HRP (Abcam), and incubate for 1 hour at room temperature. They were then washed 3× with PBS+0.1% Tween20. Finally, 100 µl/well of TMB (Pierce) was added to each well and after 5 minutes add 50 ul of stop solution to each well. The plates were read on a Multiscan FC microplate reader (Thermo Scientific) at […].
# [4] = biological target: T1, HGREM1-His (ACRO); experiment: competition ELISA on captured human gremlin (Acro,0.5ug/ml), upper panel: hybridoma 14E3 titrated against a fixed amount of chimeric 22F1-C, bound chimeric antibody detected
# Method: Epitope binning of anti-gremlin hybridoma antibodies were performed using a competition ELISA assay. Clear polystyrene plates (BEAVER) were coated with 100 μl/well of a 0.5 μg/ml hGREM1 (ACRO) in high pH coating buffer overnight at 4° C. Then the plates were washed once on an automatic plate washer using PBS+0.1% Tween 20 (Sigma). 100 μl of block solution consisting of PBS+1% BSA+1% normal goat serum+0.05% Tween 20 (Sigma) was added to each well and incubated at room temperature for 2 hours. Then 50 μl/well of 20 μg/ml saturated antibodies (hybridoma antibodies) in antibody dilution buffer (PBS+1% BSA+1% normal goat serum+0.01% Tween 20) were then added to each well of the plate and incubate for 1 hour. Then add 50 μl/well of 40 ng/ml competitive antibodies (chimeric antibodies, e.g., 14E3-C, 22F1-C, 56C11-C, and 69H5-C) to each well of the plate and incubate for another 1 hour at room temperature. […] The plates were read on a plate reader at 450 nm. The failure of the second antibody to bind in the presence of saturating quantities of the first antibody indicates the two antibodies were in the same epitope bin; the success of the second antibody to bind in the presence of the saturating quantities of the first antibody indicates the two antibodies were in different epitope bins. […]
# The amount of chimeric antibody bound to gremlin were determined.
# [5] = biological target: T1, HGREM1-His (ACRO); experiment: ELISA on coated hGREM1 (Example 5: ACRO; sheet title: DAN Family,R&D,0.5ug/ml), anti-mouse IgG-HRP
# Method: as §1
IC50 [1] [µg/mL],EC50 [2] [µg/mL],binding result [3],IC50 (read off the curve) [4] [µg/mL],EC50 (read off the curve) [5] [µg/mL],Binder
0.512,0.0147,–,–,–,"36F5 (antibody, V domains shown, mouse hybridoma antibody; also called hybridoma 36F5) VH: QVQLQQSGAELARPGASVKLSCKASGYSFTSSGIGWVKQRSGQGLEWIGEIYPRSGNTYNNEKFKGKATLTADKSSSTVYMELRSLTSEDSAVYFCVREAYSHHYYAMDYWGQGTSVTVFS VL: DVLMTQTPLSLPVSLGGQASISCRSSQSLLHSNGNTYLEWYLQKPGQSPKLLIYKVSNRFSGVPDRLSGSGSGTDFTLKISRVEAEDLGVYYCFQGSHVPFTFGSGTKLEIN"
–,–,no binding (tested: 1 ug/ml),~1,~0.01,"14E3 (antibody, V domains shown, mouse hybridoma antibody; also called hybridoma 14E3; anti-gremlin1 antibody 14E3) VH: QIQLVQSGPELKKPGETVKISCKTSGSTFTTYGMAWMKQAPGKGLTWMGWINTLSGEPTYADDFKGRFAFSLKTSANTAYLQINNLKNEDAATYFCAREPMDYWGQGTSVIVSS VL: not shown"

# From patent publication US20240294622A1 (SUZHOU TRANSCENTA THERAPEUTICS, published 2024)
